Consider 12 sequences from the DeepSol protein solubility set.

A short description of the data set: soluble on expression in E. coli; label from the status in PepcDB or PDB records.
For “MSLRTTESEKGLRMPGLPPMVAPPAEQVDDPVTATDAANAVDAVLRGVLDERLRHCRAVDPLFARELADRLAALTARGGKRLRTAFAHCGWRAAGGSGDATAVLRTGAALELLQACALVHDDVMDGSVQRRGAPALHVDLARGHWAAGMHGSSESFGTSAAVLTGDLALAWADDLLTETALGTPHGPRLHGEWRAMRTEMVAGQYRDLHAQAARSSGVDEALAIATLKSALYTVARPLALGAVLAGAADGDALEALRAAGRCAGLAFQLRDDLLGAFGDPALTGKPADDDLRSRKLTYLLAVAVRLADAADDHLAAAALAPDADPKSEKAVRQVRSALVRTGARDLVETKIGELTDMSLAHFDRCGARPAVRHEFAALIGRATGAVPRGTGEVVEGHHHHHH”, the “soluble on expression in E. coli” value is reported as “soluble”.

With “MGSDKIHHHHHHMKISTHELIAVVSQFNPWWRGESIQDLPTWHRAAYQELELWLIKPPVPRAIFLSGARQIGKTTLLLQAIDKLLKEGVKPGNILYVTFDHPLIKMSDIDAVLEAWREREPKTGDLEYIFIDEAQFMRSWGTWIKHQVDFSKSRRIFFTGSATPIIEADQESGVGRWHTIRLTTLSFYEYLQIKKIDLPQLPTVKTLRELFEWPQQEFYKVKELAVHYVGHFHEYLLRGGFPQTAQVENITQAQRLLREDIIDKVLKRDMTALFGVRRILELEQTFLYLCMHDGGLLDMTDLCSNLEVKRPTIQNYIFLLEATNLIYRLPPFGYGKDILRAKYKIYLADAAIAPAVLLKDKSILDDPESLGIATETAVFKHLFARYYSQNVRFSYWRGTKDHEVDVVAQIGDQIIPFEVKYRSQHTNAKALKGLLELCKKKSIAHGYVVTKSLDDFGIMKALPEIKTNIMQIPAPLLCYWMGESELRQTFGV”, the “soluble on expression in E. coli” value is recorded as “not soluble”.

Take “MGSDKIHHHHHHMQSLYTSASTMAQLQKQLDTTGHNLANANTNGYKRRDSQFNELLVRNLNNQPAGLTPGSLTTPAGLRLGVGGYVANEATRFATGTFQNTGRKLDAALSNPHHFFGVIDADGVTKFTRDGNFELSPQANGQVLLTDDAGRSVINQANEPITFPDDATSIELNKDGNITGVLNGERRVLARIGVADIPNHGELTDVGGGLYTTAGQYQNATGNPLTVGTLETSNVDMATEMTNLTQIQRAYQFNSKALTTSDQMMGIVTSLK”: the “soluble on expression in E. coli” value is recorded as “not soluble”.

For the sequence “MAPTNKDGDVATVKAVDVLKQKAGAHHCLGNVHANLPVNKVTVHPLVLLSVVDHFNRVSKTQSVKRVVGVLLGSMKKDKTLDIGNSFAVPFDEDDKDKSTWFLDMDYLESMYGMFYKVAAKEKIVGWYHTGPKLHKNDIAINEQLKRFCPNPVLVIIDAEPKNIGLPTEAYIEVQEVHDDGTPPIKTFEHVPSDIGAEEAEEVGVEHLLRDIKDQTAGTLSQRITDQLMGLRGLQSQLESIEKYLHDIVRGTLPVNHHVIYYVQEVLNLLPDVTHPDYIVSQNVQTNDQLMCVYMGSLVRSVVALHNLIDNKISLQKAEKEQETGEAEKKKDEKDKKDKKDEKKDEKKEKDSKSSTPNTPKK”, the “soluble on expression in E. coli” value is “not soluble”.

As to “ISDVKFTVRGNITYSKNEIIERDEENNVYAYQMKKGYRVNQNRGLIALGLFKDYDDIRNSPTQKYGPVMPGDIKYKDVNGDGVVNDGDIVAIGSTSKPNLIYGLGLSATWKGLDVSLHFQGAGKSQFFTYGKCIWAFTEGQWGNILKGTLDNRWVDAETAQKLGIPANENPNASYPRLSYTDNGNGNTTIYEYKNNYRNSTYWLRNGSYVRLKTIDVGYTLPKKIVNKIHFNNVRIFMTGTNLLTWSSFKLWDPEMGASRGEQYPLAKSITLGLSVNL”, the “soluble on expression in E. coli” value was “not soluble”.

Turning to “MDTEDTSGYSSLKSSPQSSDENFFKRLQWGKIRLELKTPEFLKESSELEIEKNEKSGIQKCGENEGENEEKCEFRPVVTPNEIDSHKEWYHRLLMLKLEYKRGERGAFPPFPPPPLPSMMIAASNAVSFNAFDEVKRAAQAKTAKSPSTSSLERRAQRFCPADFQPLPPPHIYIEMIRTLAPHQYIDLTYALAGSVLLEMGVKIPDRYPNLPPKIEPYRDIESEEAAHWTEMSSQSSSEGEYSDASESAKLVQTLNRRKNKERRETRKIRIVASMLTSSTFSMKKKRKNEGLDFKHETFPRDYDYKEKTLSTFIPPRIARRPPIPPPQFFFPPSPHFSREPHSLPPMPMMLPIPLPPMSLSSPISPIHFQKNLQSTPERPSRTDSSRVHAKQIKNDIIIVEKVTDV”, the “soluble on expression in E. coli” value is reported as “not soluble”.

As for “GPGSMHFPALFPEPLATAHASRLHPFPWSSSYESIFLCPPTSLCSSAASMTQPTLTEDELDDALGLAIRAANTAAFISNSVIDDKTNNIVEAQTRNNPNDLVTQCEKHCKEEVLNILRVGTPSYAILSDDMHSEAVLGDGPTWIVGPIDGTVSFKHGLFDFCISIALALRKEPILGVVCAPRLQEVFTAVNNRGAFSNGQRIHVSLVDSLRQSVVLLHHSGTRSDAAVRSVAAMQAELAKLPVQGLRCNGSAALDMCLVAAGRAELFWKAGVNPWNVAAGVIIVREAGGVVHDVESTDSFDLTCRSVCCGCSLDVTKHGVELSLKHNYRSSVLNTSS”, the “soluble on expression in E. coli” value was “not soluble”.

For the sequence “MGSDKIHHHHHHMLAGFAAAKAPEIDPALVDTLVAQIMQQADRHAEQSQKPDGQAIRNDAVRRLQTLEVLKNRALKEGLDKDKDVQNRFKIAEASFYAEEYVRFLERSETVSESALRQFYERQIRMIKLQQVSFATEEEARQAQQLLLKGLSFEGLMKRYPNDEQAFDGFIMAQQLPEPLASQFAAMNRGDVTRDPVKLGERYYLFKLSEVGKNPDAQPFELVRNQLEQGLRQEKARLKIDAILEENGVKP”, the “soluble on expression in E. coli” value is listed as “not soluble”.

As to “MNEFSILCRVLGSLFYRQPQDPLLVPLFTLIREGKLAANWPLEQDDMLARLQKSCDITQISTDYNALFVGEECAVAPYRSAWVEGAEESEVRAFLTSRGMPLADTPADHIGTLLLAASWLEDQSAEDESEALETLFADYLLPWCNTFLGKVEAHAVTPFWRTLAPLTRDAIGAMWDELQEEDEE”, the “soluble on expression in E. coli” value is given as “not soluble”.

Consider “MSLRHFFGAFLLGMATLTVMPTEQVLAGTLTGQPPIVIGHRGASGYRPEHTLAAYELAIQMGADYIEPDLVATKDGVLVARHENALAILNADGTLNLTDTSTDVFERLQFADRKTTKVIDGRSITGWFTEDFTLAELKTLRAIERIPGIRPQNTQYDRQFEIPTLQEVIDLAKAQSAALGRTIGIYPETKHPTYFDSIGLSMEEILVSVLNANGYVDESAPVYIQSFEVSNLKDLNRLTNVSLVQLISPSGRPYDFVVNGDSRLYRDLITPLGLAEIATYANGIGANKNLIIPRDGRGNLLSPTTLVDDAHAAGLIVHAWTFRNEDVFLPTNLQGNPQEEYKRFYQTGIDGLFSDNPDTAFAVRSTLVPEPGTIFGLGFVPLLGWLFRRRKEGHHHHHH”, for which the “soluble on expression in E. coli” value is recorded as “not soluble”.

For “SLAGETINFCKGWKFHLGDAGKGASSSSYNDSQWRILNIPHDWSIEGTYKQFENGTDWQSGFLPAGISWYRKTFTIPSKWKNKKVQILFEGVYLNSEVWINGHWLGKRPNGYISFVYDLTPYLQEGKNQIAVKVDHSKALTGRWYTGSGIYRPVYLLVSNPTHIPYSGIHFRSKLQNKQSATYTLSIEIETQEKKPIKVKTYLQAPNGSIADTSEKIFVSSADSLCFLSGSIRKPLLWSPDSPNVYTLICQLTRDNKILDECRLPVGFRQLEFNPVSGFLLNGKSLKIKGVCDHHTVGAVGAAVPDDLLHYRLKLLKDMGCNAIRTSHNPFSPAFYNLCDTMGIMVLNEGLDGWNQPKAADDYGNYFDEWWQKDMTDFIKRDRNHPSIIMWSIGNEVTGATPEIQHNLVSLFHQLDPDRPVTQGGTDPTRGMKTDYQKKFNYLDIIGFNGNGEEIGELEHFHKNYPTLCAIATEVPHTYQTRGVYRSQTQWRRRDFPAPWEKGNINWEQFKHRVFPIPDLTEKECFPEESDYPYYQSSYDNASVRISARKSWQRTCSFPWLMGEFRWGSFDYLGEAEWPQRCGNFGIIDIAAIPKDAYFLYQSLWTDKPMVHLLPHWTHPGKEGKTIPVVIYTNCDAVELFINNVSLGSKPYTGEQLIWLVPYSPGKIEARGIKKGKIVATDCYQSAEAPHSVALASNKYSVKAGSDEVIRIEIDITDKNGIPCPYASNELSFHVSGPLRLLGVDNGNPTDMFPYQQPHCRCFRGKCVVLLQSDEEKGKGTLTVQGTKLVEKKLIIEVIEG”, the “soluble on expression in E. coli” value is listed as “soluble”.

Take “SQPNSSIIKYPNKVRNLPGIAASLRTVGYSTHHLYGGDADFTNVRSYLYGTGYDEVTDVSSFPFKTRLSKWGTPDHISFPRLLDDCRRLEKEKKPYFYSFLTLSSHEPFDVPSQHHPDPYLNSVFYTDSCFGDYIRGMQQSPQWKNTLIIAVSDHGYPYPADQAMPDQPGRYGIVMLWAGGAILRPIRFEEVVSQSDLPATLLAQLGLTHDEFVFSKDVFRRNSPHFAYFSFPGLVGLATSEGTTIYDFAGDKIVYGHEAPLADQRAIAAKVMLQSVMKDMLSR”: the “soluble on expression in E. coli” value is given as “not soluble”.
